In patent publication US20160168210A1, “DERIVATIVES OF COLLAGEN-BINDING HAIRPIN PEPTIDES” (NATIONAL RESEARCH COUNCIL OF CANADA, priority 2012, published 2016):
“Also recorded” adds a separate entry of the source. Where no end group is shown, it is not given here.

Tests used:
[1] = molecular target: T1, rat-tail collagen type I (Rattus norvegicus, UniProt P02454+P02466); experiment: Collagen binding/responsiveness of peptides by proton NMR and H-15N HSQC spectroscopy; parameters: rat-tail collagen type I (at 4 mg/ml in 0.02 N acetic acid); purchased BD Bioscience; host or cells: rat tail (tissue-derived); settings: for NMR perturbations after collagen gelation (polymerization); reversibility of collagen binding: before vs after collagen gelation; for response to / binding of collagen (NMR spectral perturbations): peptide free in solution vs in the presence of collagen
Protocol: Rat collagen hydrogels were prepared using rat-tail collagen type I (at 4 mg/ml in 0.02 N acetic acid) from BD Bioscience. A volume of 200 μL of the concentrated collagen solution was mixed with an equal volume of a buffer solution that was 400 mM in Tris-HCl and 400 mM in NaCl with a pH of 7.6 and with 50 μL of deuterated water (D2O). The sample mixture was transferred to an NMR tube followed by gentle mixing under agitation using a Thermolyne™ Max Mix-II apparatus. The NMR tube containing the collagen solution was placed within the RF probe housed in a 500 MHz super-conducting magnet (Bruker Avance-500 NMR spectrometer). The probe and sample bulk temperature was kept at 277 K for 3 hours and then elevated to 310 K at a rate of 1 degree/10 min to enable fibril alignment during a slow process of collagen gelation under the influence of the magnetic field (Ma 2008). The degree of fibril alignment of the collagen hydrogels was determined by use of deuterium NMR spectroscopy of the added D2O as described (Ma 2008). […]
Randomly-deposited collagen (hydrogel) matrix was prepared following the same procedure as above for partially aligned hydrogels, except that the RF probe and the NMR tube (or test tubes) containing the collagen solution were placed outside the magnetic field. Peptides containing collagen-binding hairpins were introduced into the hydrogels in two ways, the first with the collagen stock solution diluted (50:50 in volume ratio) by the buffer of 400 mM in Tris-HCl and 400 mM in NaCl at pH 7.6 containing the peptides of interest (i.e. for FIGS. 1A & 1D), which gelates in the presence of the added peptide. Alternatively, peptides in an appropriate buffer were introduced to the top of the hydrogel matrix (i.e. for FIGS. 1B & 1C) preformed in the NMR tube (or test tube) following the procedures described above. The behavior of the peptides in the hydrogels was followed by use of NMR H-^15N HSQC spectra for ^15N-labelled peptides (FIG. 1) and/or by use of one-dimensional proton NMR spectroscopy (FIG. 2).
(§1) Deuterium NMR spectroscopy studies of collagen responsiveness (and/or binding) for each peptide were carried out using a volume of (400-X) μL of a peptide dissolved in pure water mixed with 50 μL of a 10×PBS (phosphate-buffered saline) supplemented by sodium phosphate to a final concentration of 50 mM, with 50 μL of deuterated water (D2O) to form the reference sample (where X=0), or the peptide-collagen complex with X μL of rat-tail collagen type I (at 3.6 to 4 mg/ml in 0.02 N acetic acid from BD Bioscience) adjusted to achieve the desired final concentration of collagen. The pH value of the reference peptide samples was adjusted to match the pH of the final peptide-collagen complex in order to facilitate NMR spectral comparison. The peptide-collagen solutions were also subjected to gelation under magnetic field guidance followed by the measurement of fibril alignment (Ma 2008) as a semi-quantitative indication of peptide-collagen binding. Deuterium coupling constants measuring the degree of collagen fibril alignment were reduced by more than 1.0 Hz for MH2-wZIP4, by less than 0.5 Hz for MH2-wZIP6 and MH2-wZIP5, which parallel those observed for trpzip4, trpzip6, trpzip5 and the gb1 peptide (see Example 4). As a comparison, a solution of rat collagen at a concentration of 1.8 mg/ml in 200 mM Tris-Cl/200 mM NaCl at pH 7.6 formed a partially-aligned hydrogel with a deuterium coupling constant (Ma, 2008) of 2.5 Hz, while a solution of rat collagen at a concentration of 3 mg/ml in PBS (137 mM NaCl/2.68 mM KCl/10.1 mM Na2HPO4/1.76 mM KH2PO4) supplemented with Na2HPO4 to achieve a final concentration of 50 mM at pH 7.4 formed a partially-aligned hydrogel with a deuterium coupling constant of 4.8 Hz. A solution of human collagen at a concentration of 2.23 mg/ml in PBS supplemented with Na2HPO4 with a final concentration of 50 mM at pH 7.4 formed a partially-aligned hydrogel with a deuterium coupling constant of 1.3 Hz.

[2] = molecular target: T1, rat-tail collagen type I; experiment: Collagen fibril alignment of hydrogels formed from peptide-collagen solutions, deuterium NMR (deuterium coupling constant); type: binding; parameters: rat-tail collagen type I (at 4 mg/ml in 0.02 N acetic acid); purchased BD Bioscience; host or cells: rat tail (tissue-derived)
Protocol: Rat collagen hydrogels were prepared using rat-tail collagen type I (at 4 mg/ml in 0.02 N acetic acid) from BD Bioscience. A volume of 200 μL of the concentrated collagen solution was mixed with an equal volume of a buffer solution that was 400 mM in Tris-HCl and 400 mM in NaCl with a pH of 7.6 and with 50 μL of deuterated water (D2O). The sample mixture was transferred to an NMR tube followed by gentle mixing under agitation using a Thermolyne™ Max Mix-II apparatus. The NMR tube containing the collagen solution was placed within the RF probe housed in a 500 MHz super-conducting magnet (Bruker Avance-500 NMR spectrometer). The probe and sample bulk temperature was kept at 277 K for 3 hours and then elevated to 310 K at a rate of 1 degree/10 min to enable fibril alignment during a slow process of collagen gelation under the influence of the magnetic field (Ma 2008). The degree of fibril alignment of the collagen hydrogels was determined by use of deuterium NMR spectroscopy of the added D2O as described (Ma 2008).
as §1, with “A solution of human collagen at a concentration of 2.23 mg/ml in PBS supplemented with Na2HPO4 with a final concentration of 50 mM at pH 7.4 formed a partially-aligned hydrogel with a deuterium coupling constant of 1.3 Hz.” left out

[3] = as reported previously (Blanco 1994; Cochran 2001b); cited from earlier work
[4] = molecular target: T2, rat-tail collagen type I (rat, UniProt P02454 152-1207; P02466 86-1125); experiment: NMR spectroscopy (Table 4 footnote)
T2 construct: also called type-I collagen; unpolymerized collagen

[5] = molecular target: T2, rat-tail collagen type I; experiment: cell-based or functional assay

T2 sequence (P02454 152-1207 limits assumed, chain 1 of 2): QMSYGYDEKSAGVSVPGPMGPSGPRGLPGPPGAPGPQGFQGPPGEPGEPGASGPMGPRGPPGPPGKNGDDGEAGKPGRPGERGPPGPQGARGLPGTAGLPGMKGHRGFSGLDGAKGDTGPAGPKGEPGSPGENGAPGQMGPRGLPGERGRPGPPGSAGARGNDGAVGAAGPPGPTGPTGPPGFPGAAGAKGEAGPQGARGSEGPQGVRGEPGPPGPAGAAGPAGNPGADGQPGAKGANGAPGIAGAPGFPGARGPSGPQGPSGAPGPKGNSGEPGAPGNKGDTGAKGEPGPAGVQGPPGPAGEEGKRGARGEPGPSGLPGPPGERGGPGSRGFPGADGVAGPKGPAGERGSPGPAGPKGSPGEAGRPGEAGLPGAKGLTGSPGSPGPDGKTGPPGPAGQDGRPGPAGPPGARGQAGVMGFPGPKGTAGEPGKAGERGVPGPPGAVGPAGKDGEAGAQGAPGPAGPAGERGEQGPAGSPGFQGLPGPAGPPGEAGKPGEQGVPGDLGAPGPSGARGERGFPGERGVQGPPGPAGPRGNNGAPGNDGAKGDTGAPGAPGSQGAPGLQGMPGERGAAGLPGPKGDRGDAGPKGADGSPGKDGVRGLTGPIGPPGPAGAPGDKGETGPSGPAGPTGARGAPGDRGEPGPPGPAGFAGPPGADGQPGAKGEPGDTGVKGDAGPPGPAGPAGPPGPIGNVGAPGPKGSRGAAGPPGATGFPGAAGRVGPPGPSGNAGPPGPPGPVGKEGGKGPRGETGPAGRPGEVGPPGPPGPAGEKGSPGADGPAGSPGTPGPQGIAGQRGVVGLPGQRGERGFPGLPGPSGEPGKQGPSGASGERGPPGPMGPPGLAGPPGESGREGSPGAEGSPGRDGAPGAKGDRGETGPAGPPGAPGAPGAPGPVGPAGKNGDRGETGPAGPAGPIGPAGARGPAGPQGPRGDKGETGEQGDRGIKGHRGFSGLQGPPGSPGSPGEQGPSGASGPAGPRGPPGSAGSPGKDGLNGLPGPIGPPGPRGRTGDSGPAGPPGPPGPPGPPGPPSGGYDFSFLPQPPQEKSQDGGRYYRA
T2 sequence (P02466 86-1125 limits assumed, chain 2 of 2): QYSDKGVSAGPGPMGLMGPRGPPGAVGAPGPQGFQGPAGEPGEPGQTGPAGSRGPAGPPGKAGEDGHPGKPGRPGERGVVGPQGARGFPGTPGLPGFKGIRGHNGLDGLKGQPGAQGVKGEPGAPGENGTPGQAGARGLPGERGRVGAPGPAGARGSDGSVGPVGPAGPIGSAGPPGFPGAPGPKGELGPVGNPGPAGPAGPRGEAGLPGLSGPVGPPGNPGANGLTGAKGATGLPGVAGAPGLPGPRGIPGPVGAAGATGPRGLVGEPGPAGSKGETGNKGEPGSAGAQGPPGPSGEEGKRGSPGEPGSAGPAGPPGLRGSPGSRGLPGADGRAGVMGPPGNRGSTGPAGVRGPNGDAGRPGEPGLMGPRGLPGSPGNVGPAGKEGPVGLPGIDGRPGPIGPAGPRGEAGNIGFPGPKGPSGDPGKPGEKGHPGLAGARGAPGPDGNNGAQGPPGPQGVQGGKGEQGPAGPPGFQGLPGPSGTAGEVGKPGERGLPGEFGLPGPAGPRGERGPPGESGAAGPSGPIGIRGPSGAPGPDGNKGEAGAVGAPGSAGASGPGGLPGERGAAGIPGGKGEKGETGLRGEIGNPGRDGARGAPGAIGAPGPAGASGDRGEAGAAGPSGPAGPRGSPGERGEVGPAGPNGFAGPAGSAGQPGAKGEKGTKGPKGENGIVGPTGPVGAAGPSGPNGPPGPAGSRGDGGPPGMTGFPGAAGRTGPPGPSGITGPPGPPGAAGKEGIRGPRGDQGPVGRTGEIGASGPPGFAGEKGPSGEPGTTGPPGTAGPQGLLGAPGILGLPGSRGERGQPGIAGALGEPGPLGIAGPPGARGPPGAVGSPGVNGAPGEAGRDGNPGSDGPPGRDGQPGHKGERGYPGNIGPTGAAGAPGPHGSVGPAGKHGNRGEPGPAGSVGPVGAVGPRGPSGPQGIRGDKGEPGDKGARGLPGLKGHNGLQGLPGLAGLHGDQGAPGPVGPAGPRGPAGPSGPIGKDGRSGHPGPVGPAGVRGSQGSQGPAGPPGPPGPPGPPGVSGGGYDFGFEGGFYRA
T1 sequence (P02454 152-1207 limits assumed): as the sequence (P02454 152-1207 limits assumed, chain 1 of 2) above
T1 sequence (P02466 86-1125 limits assumed): as the sequence (P02466 86-1125 limits assumed, chain 2 of 2) above

Molecule: IRFDTGEWTWDDATKTWTWTEGDFEEIPEEYLQ (MH2-wZIP4 - molecule of Formula (I))
- NMR perturbations after collagen gelation (polymerization); reversibility of collagen binding [1]: no dramatic impact on resonance perturbations
- NMR perturbations / release after collagen degradation by a collagenase ([1]; collagenase treatment): releasable by the collagenase; also recorded: highly sensitive to the treatment of a collagenase
- entrapment in collagen hydrogel ([1]; diffused into pre-aligned collagen hydrogels): greatly-reduced entrapment
- response to / binding of collagen (NMR spectral perturbations) [1]: most pronounced proton NMR spectral changes; also recorded: highest capacity of binding unpolymerized soluble collagen
- effect on collagen gelation and degree of collagen alignment [2]: most pronounced interference with hydrogel formation by collagen
- reduction of deuterium coupling constant measuring the degree of collagen fibril alignment ([2]; gelation under magnetic field guidance): more than 1.0 Hz

Molecule: GEWTYDDATKTFTVTE (gb1 - does not bind collagen) [reference compound]
- response to / binding of collagen (NMR spectral perturbations) [1]: no response to collagen; also recorded: little binding capacity; also recorded: does not bind collagen
- effect on collagen gelation and degree of collagen alignment [2]: remained similar with or without the peptide
- Tm [3]: about 7 °C

Molecule: GEWTYDDATKTFTWTE (GEWTYDDATKTFTWTE-NH2) [trpzip5, reference compound]
- NMR perturbations after collagen gelation (polymerization); reversibility of collagen binding [1]: revert toward those of the free peptides after collagen polymerization; also recorded: reverts to a greater extent as compared to trpzip6
- response to / binding of collagen (NMR spectral perturbations) [1]: responded to collagen; also recorded: respond to the presence of collagen
- Tm [3]: about 43 °C

Molecule: GEWTWDDATKTWTVTE (GEWTWDDATKTWTVTE-NH2) [trpzip6, reference compound]
- NMR perturbations after collagen gelation (polymerization); reversibility of collagen binding [1]: revert toward those of the free peptides after collagen polymerization
- response to / binding of collagen (NMR spectral perturbations) [1]: responded to collagen; also recorded: respond to the presence of collagen
- Tm [3]: about 45 °C

Molecule: GEWTWDDATKTWTWTE (GEWTWDDATKTWTWTE-NH2) [trpzip4, reference compound]
- response to / binding of collagen (NMR spectral perturbations) [1]: responded to collagen; also recorded: most pronounced changes in response to the presence of collagen; also recorded: dramatically altered by collagen
- effect on collagen gelation and degree of collagen alignment [2]: significantly reduced degree of collagen alignment
- Tm [3]: about 70 °C

Molecule: SVTWENGKWTVK [W4W9-trpzip2]
- binding result [4]: no binding

Molecule: IRFTDGEWTWDDATKTWTWTEGDFEEIPEEYLQ [MH2-wZIP4]
- reduction of the deuterium coupling constant measuring the degree of collagen fibril alignment [5]: > 1 Hz

Molecule: SYTWENGKWTYK [YWWY-trpzip2]
- binding result [4]: no binding

Molecule: GEWTYDDATKTFTWTE [MH2-wZIP5]
- reduction of the deuterium coupling constant measuring the degree of collagen fibril alignment [5]: < 0.5 Hz

Molecule: GEWTWDDATKTWTVTE [MH2-wZIP6]
- reduction of the deuterium coupling constant measuring the degree of collagen fibril alignment [5]: < 0.5 Hz

Molecule: SYTWEGNKWTYK [Y2Y11-trpzip1]
- binding result [4]: no binding
